Assay results reported in the nanobody polyreactivity screen of Harvey et al. (2022).

Test: yeast display, Sf9 membrane polyspecificity reagent, FACS + sequencing; frameworks hold sequencing errors
Method in brief: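 Polyreactivity labels are assigned by the sorting gate from which each nanobody was recovered. The gates were low and high (top ~1%), set on anti-HA fluorescence for expression and streptavidin fluorescence for reagent binding. Before sorting, galactose-induced (36–48 hours) yeast display cells were stained for 1 hour at 4 °C with 10% biotinylated, detergent-solubilized Sf9 membrane reagent.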

Sequence | polyreactivity (PSR sort gate)
QLQLVESGGGLVQAGGSLRLSSAASGITLYQYAMGWYRQSPGKERELVAAISSSGGSTYYADSVKGRFTISRDNAKNTVYLQMNSLKPEETAVYYCAAADRFWYGYYQYDYWGQGTQVTVSS | high polyreactivity
QVQLVESCGCLVQAGGSLRLSCAASGIIFFPYAMGWYRQAPGKEREFVAAITSRRGSTYYADSVKGRFTISRDNPKNTVYLQMNILKPEDTAVYYCAAAWCAPSRFFSAFDYWGQGTQVTVSS | low polyreactivity
QVQLVESGGGLVQAGGSLRLSCAASGSTFSGYAKGWYRQAPGTEWELVAAINWNGGRTYYADSVKGRFTISRDNAKNTVYLQMNSLKPEDTAVYYCNAVTRAAYWWTARSTDYDYWGQGTQVTVSS | high polyreactivity
QVQLVESGGGLVQAGGSLRLSCAASGYTFYGYAMGWYRQAPGKERELVAAISGSGGSTYYADSVKGRFTISRDNAKNTVYLQMNSLKPEDTAFYYCNKARYAIYRGDGYDYWGQGTQVTVSS | high polyreactivity
QVQLQESGGGQVQAGGSLRLSCAASGTIFLYAFMGWYRQAPGKERELVAAIDVGTTTNYADSVKGRFTISRDNAKNTVYLQMNSLKPEDTAVYYCAAPYVSWDYRYYYWGQGTQVTVSS | low polyreactivity
QVQLVESGGGLVQAGGSLRLSCAASGRTIDYNGRGSYRQAPGKERELVAVISSSGGSPFYADSVKGRFTISRDNAKNTVYLQMNSLKPEDTAVYYCAADFIVAYTLHGSYDYWGQGTQVTVSS | low polyreactivity
QVHLVESGGGLVQAGGSLRLSLAASGRIFGGYAMGWYRQAPGKERELVAGITNTGDTYYADSVKGRFTISRDNAKNNVYLQMNSLKPEDTAVYYCNAEGDKRRDRYDYWGQGTQVTVSS | low polyreactivity
HVQLVESGGGLVQAGGSLRLSCAASGSTFKRYAMGGDRQAPGKEREFVAGISWRGGSTYYADSVKGRFTISRDNAKNTVYLQMNSLKPEDTAVYFCAARSFSNIGYHGYGYWGQGTQVTVSS | high polyreactivity
QVQLVESGGGLVQAGGSLRLSCAASGRIFASYAMGWYRQAPGKERELVAAITRSGGRTYYADSVKGRFTISRDNAKNTVYLQMNSLKPADTAVDYCAVDTVTRTVLVYGDRNDSWGQGTQVTVSS | high polyreactivity
QVHLVDSGGGLVQAGGSLRLSSAASGRIFPFYAMGWYRKAPGKERELVAAITSSGGRTYYADSVKGRFTISRDNAKNTVYLQMNSLKPEDTAVYYCAASLVGPFIYSHLYDYWGQGTQVTVSS | low polyreactivity
QVHLVESGGGLVQAGGSLRLSCAASGFTFPLYARGLYRQAPGKERELVAVINSDGGRTYYADSVKGRFTISRDNAKYTVYLQMNSLKPEDTAVYYCATRATWYYWGQGTQVTVSS | high polyreactivity
QVQLVESGGGLVQAGGSLRLSCAASGGTLQGNAMGWYRQAPGKERELVAAISSRGGRTYYADSVKGRFTISRDNANNTVYLQMNSLKPEDTAVYYCAAVQKGDSTLLRTKGGYWGQGTQVTVSS | high polyreactivity
QVQLVESGGCLVQAGGSLRLSCPASGSNFPDNAMGRYRPAPGKERELVAAISLSGGRTYYADSVKGRFTISRDNAKNTVYLQMNSLKPDDTAVYYCNKLTRFVKYDYWGQGTQVTVSS | high polyreactivity
KVQLQESGGGLVQAGGSLRPSCAASGSITDGVPMGWDRQAPGEERELVATTVLGATTNYADSVKGRFTISRGNAKNTVYLLMNSLKPEETAVYYCAAPLRYDKGFSYWRQGTQVTVSS | low polyreactivity
QVHLVESAGGLVQAAASLRLTCSASGNTLGSYAMGWYIQAPGKETKFVATISKRGGSTYYADSVKGRFTISRDNAKNTVYFQMNSLKPEDSAVYYCAAEDEYYGGDEYWGQGTQVTVSS | high polyreactivity
QVQLQESGGGLVQAGGSLRPSCAASGSISDGVPMGCYRQAPGEERELVATTVLGATTNYADSVKGRFTISRGNAKNTVYLQMNSLKPEETAVYYCAAPLRYDKGFSYWGQGTQVTVSS | low polyreactivity
HVQLVESAGGLVQARGSLRLSCAASGSIFVTYAMGWYRQARGKERELVATITYSGGSTSYADSVKGRFTISRDNAKITVYLQMNSLKPDDTAVYFCAADLDSDFDYWGQGTQVTVSS | low polyreactivity
QVQLVESGGGLVQAGGSLRLSCAASGRIFGGNTMGWYRQAPGKEREFVAAITQSGTRTYYADSVKGRFTISRDNAKNTVYLQMNSLKPEDTAVYYCAAEGYWYPYDYWGQGTQVTVSS | high polyreactivity
QGQLLESGGGLVQAGGSLRLSCAASGRTFRSYAMGWYRQAPGKESELVAASSQRGGSSFYADSVKGRFTISRDNAKNSVYLQMNSLKPEDTAVYYCANPVRSGYDYWGQGSQVTVSS | high polyreactivity
QVQLVESGGALVQAGGSLRLSCAASGSTFRRYAMGRYRQAPGKERELVAAISYGGGTTYYADSVKGRFTISRDNAKNTVYLQMNSLKPEDTAVYYCAARGPYGYVLLYYWGQGTQVTVSS | high polyreactivity
QVQLVESGGGLVHAGGSLRLSCAASGNIFVEYAMGWYRQAPGKERELVAAITNSGGRTHYADSVKGRFTISRDNAKNTVYLQMNSLKPEDTAVYYCAAPTKYRSRRYYWGQGTQVTVSS | high polyreactivity
QVQLVESGGGIVQAGGSLRLSSAASGFIFRYYAMGWYRQARGNEREWVAAISSGGRTSYADSVKGRFTISRDNAKNTVYLQMNSLTPEDTAVYYCAADRWRCLFYYGNDYWGQGTQVTVSS | high polyreactivity

Sequence | polyreactivity (PSR sort gate)
QVQLVESGGGLVQAGGSLRLSCAASGIIFQPYTMGWYRQAPGKERELVAAISYSGGSTYYADSVKGRFTISRDNAKNTVYLQMNSLKPEDTAVYYCAARRYPYSGTHRGFYYWGQGTQVTVSS | high polyreactivity
QVQLVESGGGLVQAGGSLSLSCASSGSTLTYYAMGWYRQEPGKEREFVAAIRWSSGNTYYADSVKGRFTISRDNAKNTVYLQMNSLKPEDTAVYYCAKERRYTGRRSYEYDYWGQGTQVTVSS | low polyreactivity
QVQLVESGGGLVQAGGSLRLSCAASGFIFDFYTIGWYRQAPGKEWELVAAITNGGSTYYADSVKGRFTISRVNAKNTVYLQMNSLKPEDTAVYYCAAYYRSRHHGYDSWGQGTQVTVSS | low polyreactivity
QVQLVESGGGLVQAGGSLRLSCAASGSTFSLYALGWYRQAPGKERELVAAITRGGNTYYADSVKGRFTISRDNAKNTVYLQMNSLKPEDTAVYYCNAVFPKTRSYAYGYWGQGTQVTVSS | high polyreactivity
QVQLVESGGGLVQAGGSLRLSCAASGRIFYIYAMGWYRQAPGKERELVATISVSGGRTYYADSVKGRFTISRDNAKNTVYLQMNSLKPEDTAVYYCAKECRFNIHKWYDYWGQGTQVTVSS | low polyreactivity
QVQLVESGGGLVQAGGSLRLSCAASGSTFRWNAMGWYRQAPGKERELVASITSGGSTNYADSVKGRFTISRDNAKNTVYLQMNSLKPEDTAVYYCNADVRRSTYYVWLYDYWGQGTQVTVSS | low polyreactivity
QVQLVESGGGLVQAGGSLRLSCAASGSTFRKNAMGWYRQAPGKERELVAAITYSGGGTYYADSVKGRFTISRDNAKNTVYLQMNSLKPEDTAVYYCAAERNKYAPYYYWGQGTQVTVSS | high polyreactivity
QVQLVESGGGLVQAGGSLRLSCAASGRTFAEYAMGWYRQAPGKERELVAAISKRGGSTYYADSVKGRFTISRDNAKNTVYLQMNSLKPEDTAVYYCNKVNRVPSYGHEVGYWGQGTQVTVSS | high polyreactivity
QVQLVESGGGLVQAGGSLRLSCAPSGSTLYRNAMGWYRQAPGQDRELVAAINYRGTRTYDADSVKGRFTISRDTAKNTVYLQMNSLQPEDTAVYFCAKDYSQFVTYPYDYWGQGTQVTVSS | low polyreactivity
QVQLQESGGGLVQAGGSLRLSCAASGSIFADVQMGWYRQAPGKERELVASINFRGTTSYYADSVKGRFTISRDNAKNTVYLQMSSLKPEETEVYYCAVGRSEGGDFAYWGQGTHVTVSS | low polyreactivity
QDQLVESGGGLVQAGGSLRLSCAASGFTFGWYAMGWYRQAPGKERELVAAITSRGGSTYYPDSVKGRFTISRDNAKNTVYLQMNSLKPEDTAVYYCAALYGWSGYDYWGQGTQVTVSS | high polyreactivity
QVQHVESGGGLLQAGGSLRLSCAASVSTLSKNAMGWYRQAPGKERELVAAITRRGGSTSYADSVKGRFTISRDNAKNTVYFQMNSLKPEDTAVYYCNAVSKYDYGYWGQGTQVTVSS | high polyreactivity
QVQLVESGGGLVQAGGSLRLSCAASGSIFQYYAMGWYRQAPGKERELVAAISSGGRTNYADSVKGRFTISRDNAKNTDYLQMNSLKPEDTAVYYCAAARYYYQVYRWEYDYWGQGTQVTVSS | high polyreactivity
QVQLVESGGGLVQAGGSLRLSCAASGRTFRYYTMGWYRQAPGKERELVAAITRNGGRTYYADSVKGRFTISRDNAKNTVDLQMNSLKPEDPAVYYCAPGTYDGGYHYDYWGQGTQVTVSS | high polyreactivity
QVQLVESGGGLVQAGGSLRLICAASGRIFDSYTMGWYRQAPGKERELVAAISRGGGSTYYADSVKGRFTISRDNAKNTVYLQMNSLKPEDTAVFYCAASSYLNSRFKFDYWGQGTQVTVSS | low polyreactivity
QVQLVESGGGLVQAGGSLRLSCAASGINFGKYAMGWYRQAPGKERELVAAITSGDSTYYADSVKGRFTISRDNAKNTVYLQMNSLKPEDTAVYYCNADAWRSQSWWHGLMEYWGQGTQVTVSS | low polyreactivity
QVQLVESRGGLVPAGGSLRLSCAASGSTVRDYTMGRYRQAPGKEREVGAAITRRSASTYYADSVKGRFTISRDNAKNTVYLQLNSLKPEDTAVYYCAVRTNGPFEYWGQGTQVTVSS | high polyreactivity
QVQLGDSGGGLGQAGGSLRLSCAASGSTFASDTMGWYRQEPGKERYLVATISRPGGTTNYADSVKGRFTISRDNAKNTVYLQMNSLKPEDTAVFDCARRYPRYDFAYGYDYWGQGTQGTVSS | high polyreactivity
QVQLVESGGGLVQAGGSLRLSCAASGITFSSNTRGCYRQATGNETELVAAISSSGGSTYYADSVKGRFTISRDNAKNTFYLQINSLKPEDTAVYYCNTVRFRGWVWWEYDYWGQGTQVTVSS | high polyreactivity
QVQLVESGGGLVQAGGSLRLSCAASGITFHVYAMGWYRQAPGKEREFVASISWSGGSTYYADSVKGRFTISRDNAKNTVYLQMNSLKPEDTAVYYALLTVLSAVPYSVRYDYWGQGTQVTVSS | high polyreactivity
QVQLVESGGGLVQAGGSLRLSCDASGRIISYNAMGWYRQAPGKERELVAAISWGGGSTYYADSVKGRFTISRDNAKNTVYLQMNSLKPEDTAVYYCAKGWYRIKRNDYWGQGTQVTVSS | low polyreactivity
